Measurements published in the supplement of paper PMC10724198.
± gives the standard deviation of the averaged measurements.
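Also: PSI is a weighted mean of sequencing reads over stability bins, variants kept only with over 10 reads, mCherry proximal and sfGFP distal, peptide attached via GGGS linker.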

Each sequence was assayed on Saccharomyces cerevisiae (assay: protein stability index of tFT-peptide fusion (C-terminal peptide) (PSI (0-1 scale)); higher = more stable (slower turnover)). Details: genetic background: wild type; temperature: 30 C.
PPYPPPRPKPPR gave a protein stability index of 0.699 ± 0.012.
With PPYSPSPRDPFA the protein stability index was 0.713 ± 0.047.
PQIIFVSRASYL was tested, and the protein stability index was 0.681 ± 0.015.
PQPNSSEPTSQK gave a protein stability index of 0.722 ± 0.011.
With PQTAGTHRARVN the protein stability index was 0.698 ± 0.026.
Work on PQTPQTSTQAPG yielded a protein stability index of 0.673 ± 0.01.
Work on PQVLSPPLSTSR yielded a protein stability index of 0.728 ± 0.008.
PQYLPLLPSPSP gave a protein stability index of 0.632 ± 0.048.
PRALLCLLSRPC gave a protein stability index of 0.722 ± 0.1.
Work on PRAYPSNLPPSP yielded a protein stability index of 0.721 ± 0.037.
Work on PRDLRVVRLTSA yielded a protein stability index of 0.63 ± 0.022.
With PRDSRPLPAYSL the protein stability index was 0.591 ± 0.028.
With PRFGPPQLPAKA the protein stability index was 0.754 ± 0.062.
PRFPYGPFDFSI was tested, and the protein stability index was 0.669 ± 0.046.
PRGALMKGYKPG was tested, and the protein stability index was 0.663 ± 0.1.
With PRGLGYHGALVL the protein stability index was 0.571.
With PRGPPPPAPPPT the protein stability index was 0.689 ± 0.0075.
PRGRSRPRCVIR gave a protein stability index of 0.684 ± 0.13.
In the case of PRIGRPQSLTFH, the protein stability index is reported as 0.621 ± 0.011.
With PRIPHPPRPRPP the protein stability index was 0.669 ± 0.024.
In the case of PRLGFFPFPSGP, the protein stability index is reported as 0.709 ± 0.03.
PRLLPPLGFLTF gave a protein stability index of 0.764 ± 0.075.
PRLPLPPPPLPL showed a protein stability index of 0.683 ± 0.026.
PRLPYPSLFPCT gave a protein stability index of 0.678 ± 0.056.
With PRPAAPSPPPLP the protein stability index was 0.588 ± 0.014.
Work on PRPAQDAEPIQP yielded a protein stability index of 0.646 ± 0.098.
PRPGGHLFLVFS gave a protein stability index of 0.679 ± 0.033.
PRPKNQMAIYRE gave a protein stability index of 0.708 ± 0.07.
Work on PRPLPLPPLALP yielded a protein stability index of 0.696 ± 0.027.
PRPLTPPAPPHP was tested, and the protein stability index was 0.748 ± 0.041.
For PRPPNPRPPPPP, the protein stability index was 0.729 ± 0.071.
For PRPPPPPASVCR, the protein stability index was 0.6579 ± 0.00069.
Work on PRPPPRRPDFGL yielded a protein stability index of 0.825 ± 0.16.
With PRPRRSSLPFPP the protein stability index was 0.818 ± 0.073.
PRPSPLSSLSVS showed a protein stability index of 0.7206 ± 0.0064.
With PRRFPFRHATSP the protein stability index was 0.635 ± 0.084.
In the case of PRRLAPPPPPSP, the protein stability index is reported as 0.744 ± 0.012.
In the case of PRRPHDPFPAAP, the protein stability index is reported as 0.686 ± 0.017.
Sequence PRRPPPLPPASF has a protein stability index of 0.713 ± 0.047.
Sequence PRRSNPQPTHIR has a protein stability index of 0.708 ± 0.038.
With PRSLPLDHPAPC the protein stability index was 0.709 ± 0.085.
PRSPLRYPPHCP was tested, and the protein stability index was 0.691 ± 0.035.
With PRSPPPSSSTPD the protein stability index was 0.688 ± 0.036.
In the case of PRSPPRSLFFPC, the protein stability index is reported as 0.648 ± 0.047.
With PRSRSGVAQGPE the protein stability index was 0.6607 ± 0.0039.
Sequence PRSSVLPPCPSL has a protein stability index of 0.707 ± 0.025.
In the case of PRSTFLRRHLRV, the protein stability index is reported as 0.6184 ± 0.0037.
Sequence PRTGPLPPLTPL has a protein stability index of 0.679 ± 0.016.
Work on PRTSSPPRPFRF yielded a protein stability index of 0.624 ± 0.022.
PRVLVVSAVNTV gave a protein stability index of 0.695 ± 0.02.
PRYAEFVGRFEV gave a protein stability index of 0.6508 ± 0.0064.
In the case of PSAFSPPARISL, the protein stability index is reported as 0.761 ± 0.066.
PSAGSPAPLLHP gave a protein stability index of 0.705 ± 0.064.
Work on PSALLGTCRCVQ yielded a protein stability index of 0.706 ± 0.028.
In the case of PSAPPPSPLGRT, the protein stability index is reported as 0.738 ± 0.059.
Work on PSAQPPPRPTRP yielded a protein stability index of 0.6878 ± 0.0036.
In the case of PSCLPPPAHLEL, the protein stability index is reported as 0.705 ± 0.043.
PSFLPPAPLGIS showed a protein stability index of 0.741 ± 0.038.
With PSFLSPCPPFLS the protein stability index was 0.747 ± 0.039.
PSFRTGLPPSDP was tested, and the protein stability index was 0.681 ± 0.038.
PSGLVSPSCLGC showed a protein stability index of 0.68 ± 0.022.
PSGRRRWACARG showed a protein stability index of 0.694 ± 0.0097.
PSHLHERIRPAR was tested, and the protein stability index was 0.726 ± 0.16.
For PSHLNAPTTAPP, the protein stability index was 0.701 ± 0.038.
PSHVFSDCIAPP gave a protein stability index of 0.696 ± 0.011.
PSILRGVLSAPK showed a protein stability index of 0.695 ± 0.04.
With PSKRKRATPSKR the protein stability index was 0.647 ± 0.021.
In the case of PSLCFLPPPPSP, the protein stability index is reported as 0.686 ± 0.0076.
Sequence PSLFHHWSVLSP has a protein stability index of 0.785 ± 0.1.
PSLHPLSPSPPA gave a protein stability index of 0.686 ± 0.041.
In the case of PSLHPNHLAPPP, the protein stability index is reported as 0.622 ± 0.046.
Sequence PSLLLPPYSSAP has a protein stability index of 0.743 ± 0.021.
PSLPDSALRHSL showed a protein stability index of 0.70673 ± 9.8e-05.
PSLPPPFPPLRP gave a protein stability index of 0.7044 ± 0.0013.
With PSLPPPSPSPPP the protein stability index was 0.666 ± 0.05.
PSLSPVEVPLSR was tested, and the protein stability index was 0.759 ± 0.046.
Work on PSLVGRVWLEFV yielded a protein stability index of 0.691 ± 0.061.
With PSPALGPFLAYR the protein stability index was 0.695 ± 0.0077.
With PSPAPRPFAPLP the protein stability index was 0.69 ± 0.01.
In the case of PSPASPPPPPLP, the protein stability index is reported as 0.714 ± 0.2.
PSPLAPPPRLPV gave a protein stability index of 0.733 ± 0.049.
PSPLFSGSFLFF gave a protein stability index of 0.716 ± 0.029.
For PSPLPLLPPPRP, the protein stability index was 0.645 ± 0.037.
Sequence PSPLPPPLPPPV has a protein stability index of 0.675 ± 0.043.
Sequence PSPLPSPLLTTL has a protein stability index of 0.6816 ± 0.0062.
Work on PSPPFPPPSPPP yielded a protein stability index of 0.687 ± 0.02.
PSPPHLCPSPFA gave a protein stability index of 0.7518 ± 0.0015.
In the case of PSPPHPPIPTSP, the protein stability index is reported as 0.696 ± 0.015.
In the case of PSPPIPALSFST, the protein stability index is reported as 0.684 ± 0.03.
With PSPPLPHLLLLP the protein stability index was 0.6929 ± 0.0035.
In the case of PSPPPPPRSFLH, the protein stability index is reported as 0.649 ± 0.066.
PSPPPPSRLLPP gave a protein stability index of 0.689 ± 0.025.
For PSPPPSISIPPS, the protein stability index was 0.73 ± 0.17.
For PSPPPSPPSPPS, the protein stability index was 0.708 ± 0.02.
For PSPPQLPAAPSP, the protein stability index was 0.779 ± 0.086.
PSPPRPRLPTAV was tested, and the protein stability index was 0.67026 ± 0.00045.
PSPPRPSGVPVT was tested, and the protein stability index was 0.674 ± 0.017.
Sequence PSPPVMSPEVAC has a protein stability index of 0.627 ± 0.038.
Work on PSPQNIPDPISP yielded a protein stability index of 0.673 ± 0.04.
For PSPRASLPRLPP, the protein stability index was 0.597 ± 0.074.
In the case of PSPRPFPPPLPP, the protein stability index is reported as 0.6262 ± 0.0022.
With PSPRPSPRPSPR the protein stability index was 0.692 ± 0.062.
In the case of PSPSAGPAPTPL, the protein stability index is reported as 0.65 ± 0.084.
With PSPSWYGRRLLG the protein stability index was 0.659 ± 0.027.
Sequence PSPTPPPPRSPS has a protein stability index of 0.721 ± 0.029.
Sequence PSQTTRSPPPPP has a protein stability index of 0.708 ± 0.015.
Sequence PSQWLPSRSRTA has a protein stability index of 0.733 ± 0.052.
In the case of PSRLAPPSPSIP, the protein stability index is reported as 0.694 ± 0.051.
PSRPSPSPHLPL showed a protein stability index of 0.849 ± 0.011.
PSSLRLPLCSPL showed a protein stability index of 0.7039 ± 0.004.
For PSSLSSLPPPSP, the protein stability index was 0.669 ± 0.024.
PSSPALIPCRLV gave a protein stability index of 0.61 ± 0.027.
For PSSPLSPAPPPP, the protein stability index was 0.659 ± 0.015.
Sequence PSTLLTFAISIP has a protein stability index of 0.666 ± 0.045.
For PSTPLPHLTRPS, the protein stability index was 0.677 ± 0.07.
With PSVPRLPGLSLR the protein stability index was 0.629 ± 0.053.
For PTAPVLRPPASP, the protein stability index was 0.7 ± 0.011.
PTARIPGLYLFP gave a protein stability index of 0.695 ± 0.049.
PTHDPPSLHSPA gave a protein stability index of 0.604 ± 0.027.
PTITPPPPPPPP was tested, and the protein stability index was 0.625 ± 0.0067.
Work on PTKSQNEKTKAE yielded a protein stability index of 0.679 ± 0.037.
Work on PTLDATLSVASG yielded a protein stability index of 0.667 ± 0.036.
In the case of PTLIPPPPPPGP, the protein stability index is reported as 0.718 ± 0.059.
PTLLRRVPPVPL was tested, and the protein stability index was 0.677 ± 0.087.
With PTLPPHSLRPPP the protein stability index was 0.692 ± 0.018.
Work on PTPAPLPPPSPP yielded a protein stability index of 0.592 ± 0.024.
In the case of PTPIPLGLHSLS, the protein stability index is reported as 0.705 ± 0.048.
With PTPLPPPPPRPD the protein stability index was 0.715 ± 0.063.
PTPLPPRSPPPQ gave a protein stability index of 0.754 ± 0.045.
Work on PTPPLPYRPRSP yielded a protein stability index of 0.674 ± 0.014.
For PTPRGTPCPDTM, the protein stability index was 0.66 ± 0.065.
For PTPTTNPTHSAP, the protein stability index was 0.695 ± 0.048.
In the case of PTPTTSPASRQN, the protein stability index is reported as 0.682 ± 0.023.
PTREGSDGMVGN showed a protein stability index of 0.702 ± 0.021.
PTRRFVFCDVDK gave a protein stability index of 0.717 ± 0.077.
Sequence PTRSEGYSVVYM has a protein stability index of 0.693 ± 0.043.
For PTSPHPPPCSPP, the protein stability index was 0.724 ± 0.22.
Work on PTTPPTILLLPL yielded a protein stability index of 0.658 ± 0.031.
With PTTVSRPPPPSP the protein stability index was 0.711 ± 0.009.
PTVLFQFSESWP was tested, and the protein stability index was 0.668 ± 0.044.
In the case of PTYDSLPLLDNC, the protein stability index is reported as 0.673 ± 0.014.
PTYRGAPCLPPF showed a protein stability index of 0.728 ± 0.013.
Sequence PVFLEFESWCVC has a protein stability index of 0.685 ± 0.044.
PVFLSCCLCLLS showed a protein stability index of 0.78 ± 0.099.
Sequence PVICFTSYPDRQ has a protein stability index of 0.7 ± 0.098.
PVLPLPSLPSPS showed a protein stability index of 0.675 ± 0.0093.
PVLRLPHDETAN gave a protein stability index of 0.705 ± 0.035.
PVLYWHSYRLCR gave a protein stability index of 0.65 ± 0.008.
With PVPLLHPRSLSL the protein stability index was 0.781 ± 0.074.
PVSCMAWGRLVL showed a protein stability index of 0.667 ± 0.041.
With PVSPLFWSAKRL the protein stability index was 0.71061 ± 0.00011.
With PVSPSIHPPSYP the protein stability index was 0.759 ± 0.023.
Work on PVSSLPQTLLMF yielded a protein stability index of 0.758 ± 0.22.
PVVGNPHRIFGV showed a protein stability index of 0.714 ± 0.028.
With PVVKGAAGSAQR the protein stability index was 0.725 ± 0.074.
In the case of PWDPDTPIPPRP, the protein stability index is reported as 0.716 ± 0.012.
Sequence PWRLFVTSGSPA has a protein stability index of 0.714 ± 0.048.
PWVGRFVRLGVR was tested, and the protein stability index was 0.676 ± 0.058.
With PYIPSSVSLRQD the protein stability index was 0.712 ± 0.0092.
In the case of PYPNAQRIEIKF, the protein stability index is reported as 0.651 ± 0.026.
